These results are taken from patent publication US20140274782A1, “AFFINITY REAGENTS AND METHODS FOR DETECTION, PURIFICATION, AND PROTEOMIC ANALYSIS OF METHYLATED PROTEINS” (The Board of Trustees of the Leland Stanford Junior …, priority 2013, published 2014).

The target of the test is T1, G9a and GLP (Homo sapiens, UniProt Q96KQ7+Q9H9B1).
T1 sequence (Q96KQ7 2-1210 limits assumed): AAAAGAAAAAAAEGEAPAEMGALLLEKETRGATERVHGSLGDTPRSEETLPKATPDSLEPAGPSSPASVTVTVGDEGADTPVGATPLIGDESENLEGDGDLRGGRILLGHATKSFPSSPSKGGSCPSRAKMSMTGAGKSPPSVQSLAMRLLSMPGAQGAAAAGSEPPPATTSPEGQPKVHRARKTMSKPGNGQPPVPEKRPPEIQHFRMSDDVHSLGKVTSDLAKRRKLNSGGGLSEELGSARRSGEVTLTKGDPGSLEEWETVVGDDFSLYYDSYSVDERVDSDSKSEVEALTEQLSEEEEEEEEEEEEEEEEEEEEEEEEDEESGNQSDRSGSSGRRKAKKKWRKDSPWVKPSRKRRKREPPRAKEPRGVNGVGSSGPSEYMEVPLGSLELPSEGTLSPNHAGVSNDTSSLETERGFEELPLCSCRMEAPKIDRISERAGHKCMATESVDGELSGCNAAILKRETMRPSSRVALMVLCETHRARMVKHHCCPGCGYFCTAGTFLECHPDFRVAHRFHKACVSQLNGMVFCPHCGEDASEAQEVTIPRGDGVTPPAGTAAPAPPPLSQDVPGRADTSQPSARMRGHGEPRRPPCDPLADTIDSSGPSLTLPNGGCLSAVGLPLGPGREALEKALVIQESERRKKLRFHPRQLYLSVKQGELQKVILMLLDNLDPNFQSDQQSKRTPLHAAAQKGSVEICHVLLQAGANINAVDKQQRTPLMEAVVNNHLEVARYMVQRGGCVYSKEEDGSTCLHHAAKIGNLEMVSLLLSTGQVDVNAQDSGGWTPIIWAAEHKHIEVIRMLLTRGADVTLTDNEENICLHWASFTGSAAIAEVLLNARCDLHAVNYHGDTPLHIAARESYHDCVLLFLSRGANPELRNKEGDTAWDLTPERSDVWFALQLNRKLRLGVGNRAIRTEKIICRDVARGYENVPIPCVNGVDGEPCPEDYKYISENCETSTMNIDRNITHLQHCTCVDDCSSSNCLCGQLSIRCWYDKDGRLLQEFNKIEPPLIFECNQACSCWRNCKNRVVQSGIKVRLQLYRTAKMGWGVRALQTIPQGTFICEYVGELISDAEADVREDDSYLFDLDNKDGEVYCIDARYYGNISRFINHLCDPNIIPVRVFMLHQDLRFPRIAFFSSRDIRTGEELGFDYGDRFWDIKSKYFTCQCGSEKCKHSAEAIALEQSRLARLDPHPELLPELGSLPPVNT
T1 sequence (Q9H9B1 2-1298 limits assumed): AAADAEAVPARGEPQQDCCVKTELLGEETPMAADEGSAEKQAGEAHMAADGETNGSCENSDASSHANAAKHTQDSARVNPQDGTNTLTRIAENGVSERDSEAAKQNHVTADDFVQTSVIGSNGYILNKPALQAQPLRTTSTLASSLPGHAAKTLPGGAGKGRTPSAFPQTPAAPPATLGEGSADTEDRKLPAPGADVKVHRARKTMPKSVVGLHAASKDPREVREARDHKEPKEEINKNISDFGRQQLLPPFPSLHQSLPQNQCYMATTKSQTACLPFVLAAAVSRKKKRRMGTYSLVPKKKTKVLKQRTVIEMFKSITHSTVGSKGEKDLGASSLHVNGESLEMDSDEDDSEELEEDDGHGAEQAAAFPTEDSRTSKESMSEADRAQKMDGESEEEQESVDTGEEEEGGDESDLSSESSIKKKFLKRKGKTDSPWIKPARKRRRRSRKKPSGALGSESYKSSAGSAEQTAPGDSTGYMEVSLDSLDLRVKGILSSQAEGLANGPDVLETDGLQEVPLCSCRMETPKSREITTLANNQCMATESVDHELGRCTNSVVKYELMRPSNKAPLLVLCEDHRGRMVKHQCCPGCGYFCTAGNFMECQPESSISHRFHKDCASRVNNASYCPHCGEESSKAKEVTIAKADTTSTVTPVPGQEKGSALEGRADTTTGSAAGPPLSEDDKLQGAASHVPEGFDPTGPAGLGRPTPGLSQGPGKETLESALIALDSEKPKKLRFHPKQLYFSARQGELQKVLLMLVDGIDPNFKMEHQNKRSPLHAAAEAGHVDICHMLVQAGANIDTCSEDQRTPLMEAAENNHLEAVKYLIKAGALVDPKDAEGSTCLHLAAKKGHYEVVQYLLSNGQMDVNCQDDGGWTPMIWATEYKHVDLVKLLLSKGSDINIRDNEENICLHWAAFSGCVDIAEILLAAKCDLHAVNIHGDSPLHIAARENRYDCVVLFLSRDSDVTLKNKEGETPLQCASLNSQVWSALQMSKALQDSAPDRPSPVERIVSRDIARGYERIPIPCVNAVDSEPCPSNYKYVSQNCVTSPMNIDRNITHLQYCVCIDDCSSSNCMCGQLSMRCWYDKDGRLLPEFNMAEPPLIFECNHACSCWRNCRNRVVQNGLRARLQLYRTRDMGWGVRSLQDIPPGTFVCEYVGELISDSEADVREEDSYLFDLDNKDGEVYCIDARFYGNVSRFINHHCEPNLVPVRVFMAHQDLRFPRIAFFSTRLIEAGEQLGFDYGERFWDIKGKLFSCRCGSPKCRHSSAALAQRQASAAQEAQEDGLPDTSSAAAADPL
The test can be described thus: Triple SILAC pull-down after UNC0638 treatment of 293T cells, DMSO/UNC0638 ratio of protein captured by 3×MBT.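 As to all read-outs here: mass spectrometry (Q-Exactive) SILAC quantitation, DMSO/UNC0638 ratio computed after subtracting 3×MBTD355N mutant pull-down background, only proteins with at least twofold 3×MBT over mutant signal considered.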 Type of test: cell-based. On the set-up: cells were treated for 24 hours with UNC0638 at 2.5 μM or DMSO vehicle control; endogenous in cells; host or cells: HEK 293T. The conditions noted are these: for Relative to UNC0638 UNC Heavy / Relative to UNC0638 UNC Light: SILAC ratio DMSO/UNC0638 of protein pulled down with 3xMBT; for Relative to UNC0638 UNC Heavy: UNC0638 in heavy SILAC media; for Relative to UNC0638 UNC Light: UNC0638 in light SILAC media; for Relative to UNC0638 Average: average of UNC Light and UNC Heavy experiments.

B1: GTF2I: protein with methylated lysine identified in 3xMBT pull-down (protein, UniProt P78347 2-998, looked up)
General transcription factor …: AQVAMSTLPVEDEESSESRMVVTFLMSALESMCKELAKSKAEVACIAVYETDVFVVGTERGRAFVNTRKDFQKDFVKYCVEEEEKAAEMHKMKSTTQANRMSVDAVEIETLRKTVEDYFCFCYGKALGKSTVVPVPYEKMLRDQSAVVVQGLPEGVAFKHPENYDLATLKWILENKAGISFIIKRPFLEPKKHVGGRVMVTDADRSILSPGGSCGPIKVKTEPTEDSGISLEMAAVTVKEESEDPDYYQYNIQAGPSETDDVDEKQPLSKPLQGSHHSSEGNEGTEMEVPAEDSTQHVPSETSEDPEVEVTIEDDDYSPPSKRPKANELPQPPVPEPANAGKRKVREFNFEKWNARITDLRKQVEELFERKYAQAIKAKGPVTIPYPLFQSHVEDLYVEGLPEGIPFRRPSTYGIPRLERILLAKERIRFVIKKHELLNSTREDLQLDKPASGVKEEWYARITKLRKMVDQLFCKKFAEALGSTEAKAVPYQKFEAHPNDLYVEGLPENIPFRSPSWYGIPRLEKIIQVGNRIKFVIKRPELLTHSTTEVTQPRTNTPVKEDWNVRITKLRKQVEEIFNLKFAQALGLTEAVKVPYPVFESNPEFLYVEGLPEGIPFRSPTWFGIPRLERIVRGSNKIKFVVKKPELVISYLPPGMASKINTKALQSPKRPRSPGSNSKVPEIEVTVEGPNNNNPQTSAVRTPTQTNGSNVPFKPRGREFSFEAWNAKITDLKQKVENLFNEKCGEALGLKQAVKVPFALFESFPEDFYVEGLPEGVPFRRPSTFGIPRLEKILRNKAKIKFIIKKPEMFETAIKESTSSKSPPRKINSSPNVNTTASGVEDLNIIQVTIPDDDNERLSKVEKARQLREQVNDLFSRKFGEAIGMGFPVKVPYRKITINPGCVVVDGMPPGVSFKAPSYLEISSMRRILDSAEFIKFTVIRPFPGLVINNQLVDQSESEGPVIQESAEPSQLEVPATEEIKETDGSSQIKQEPDPTW
modifications: methylated lysine
notes: protein with methylated lysine identified in 3xMBT pull-down
As to B1, the “Relative to UNC0638 UNC Heavy” value was found to be 0.31 log base 2, the “Relative to UNC0638 UNC Light” value is on record as 0.00 log base 2 and the “Relative to UNC0638 Average” value was 0.16 log base 2.

B2: CMAS: protein with methylated lysine identified in 3xMBT pull-down (protein, UniProt Q8NFW8 1-434, looked up)
N-acylneuraminate …: MDSVEKGAATSVSNPRGRPSRGRPPKLQRNSRGGQGRGVEKPPHLAALILARGGSKGIPLKNIKHLAGVPLIGWVLRAALDSGAFQSVWVSTDHDEIENVAKQFGAQVHRRSSEVSKDSSTSLDAIIEFLNYHNEVDIVGNIQATSPCLHPTDLQKVAEMIREEGYDSVFSVVRRHQFRWSEIQKGVREVTEPLNLNPAKRPRRQDWDGELYENGSFYFAKRHLIEMGYLQGGKMAYYEMRAEHSVDIDVDIDWPIAEQRVLRYGYFGKEKLKEIKLLVCNIDGCLTNGHIYVSGDQKEIISYDVKDAIGISLLKKSGIEVRLISERACSKQTLSSLKLDCKMEVSVSDKLAVVDEWRKEMGLCWKEVAYLGNEVSDEECLKRVGLSGAPADACSTAQKAVGYICKCNGGRGAIREFAEHICLLMEKVNNSCQK
Turning to B2, the “Relative to UNC0638 UNC Heavy” value worked out at 0.22 log base 2, the “Relative to UNC0638 UNC Light” value is given as 0.12 log base 2 and the “Relative to UNC0638 Average” value stood at 0.17 log base 2.

B3: eEF1A1: protein with methylated lysine identified in 3xMBT pull-down (protein, UniProt P68104 2-462, looked up)
Elongation factor 1-alpha 1: GKEKTHINIVVIGHVDSGKSTTTGHLIYKCGGIDKRTIEKFEKEAAEMGKGSFKYAWVLDKLKAERERGITIDISLWKFETSKYYVTIIDAPGHRDFIKNMITGTSQADCAVLIVAAGVGEFEAGISKNGQTREHALLAYTLGVKQLIVGVNKMDSTEPPYSQKRYEEIVKEVSTYIKKIGYNPDTVAFVPISGWNGDNMLEPSANMPWFKGWKVTRKDGNASGTTLLEALDCILPPTRPTDKPLRLPLQDVYKIGGIGTVPVGRVETGVLKPGMVVTFAPVNVTTEVKSVEMHHEALSEALPGDNVGFNVKNVSVKDVRRGNVAGDSKNDPPMEAAGFTAQVIILNHPGQISAGYAPVLDCHTAHIACKFAELKEKIDRRSGKKLEDGPKFLKSGDAAIVDMVPGKPMCVESFSDYPPLGRFAVRDMRQTVAVGVIKAVDKKAAGAGKVTKSAQKAQKAK
modifications: methylated lysine
notes: as for B1
B3: the “Relative to UNC0638 UNC Heavy” value is 0.27 log base 2, the “Relative to UNC0638 UNC Light” value was found to be 0.04 log base 2 and the “Relative to UNC0638 Average” value stood at 0.15 log base 2.

B4: DDX1: protein with methylated lysine identified in 3xMBT pull-down (protein, UniProt Q92499 1-740, looked up)
ATP-dependent RNA helicase …: MAAFSEMGVMPEIAQAVEEMDWLLPTDIQAESIPLILGGGDVLMAAETGSGKTGAFSIPVIQIVYETLKDQQEGKKGKTTIKTGASVLNKWQMNPYDRGSAFAIGSDGLCCQSREVKEWHGCRATKGLMKGKHYYEVSCHDQGLCRVGWSTMQASLDLGTDKFGFGFGGTGKKSHNKQFDNYGEEFTMHDTIGCYLDIDKGHVKFSKNGKDLGLAFEIPPHMKNQALFPACVLKNAELKFNFGEEEFKFPPKDGFVALSKAPDGYIVKSQHSGNAQVTQTKFLPNAPKALIVEPSRELAEQTLNNIKQFKKYIDNPKLRELLIIGGVAARDQLSVLENGVDIVVGTPGRLDDLVSTGKLNLSQVRFLVLDEADGLLSQGYSDFINRMHNQIPQVTSDGKRLQVIVCSATLHSFDVKKLSEKIMHFPTWVDLKGEDSVPDTVHHVVVPVNPKTDRLWERLGKSHIRTDDVHAKDNTRPGANSPEMWSEAIKILKGEYAVRAIKEHKMDQAIIFCRTKIDCDNLEQYFIQQGGGPDKKGHQFSCVCLHGDRKPHERKQNLERFKKGDVRFLICTDVAARGIDIHGVPYVINVTLPDEKQNYVHRIGRVGRAERMGLAISLVATEKEKVWYHVCSSRGKGCYNTRLKEDGGCTIWYNEMQLLSEIEEHLNCTISQVEPDIKVPVDEFDGKVTYGQKRAAGGGSYKGHVDILAPTVQELAALEKEAQTSFLHLGYLPNQLFRTF
For B4, the “Relative to UNC0638 UNC Heavy” value is given as 0.02 log base 2, the “Relative to UNC0638 UNC Light” value amounted to 0.29 log base 2 and the “Relative to UNC0638 Average” value was 0.16 log base 2.
